Source: patent publication US6111081A, “Lactoferrin variants and uses thereof” (Baylor College of Medicine, priority 1997, dated 2000)

Test: pH-dependent release of 59Fe (dialysis, liquid scintillation counting)
Assay type: physicochemical
Conditions: 59Fe-saturated protein dialyzed against buffers pH 7-2, 48 hours, 4° C.; FIG. 4
Protocol: FIG. 4 depicts pH-dependent release of ^59 Fe from the lactoferrin amino-terminal (MN-2Y) and carboxy-terminal (MC-2Y) iron binding defective variants. ^59 Fe-saturated recombinant human lactoferrin (Rec hLF), MN-2Y and MC-2Y were dialyzed against buffers ranging in pH from 7-2. ^59 Fe remaining bound to the lactoferrin samples after dialysis was quantified by liquid scintillation counting and the Fe/protein molar ratio was determined. The data are represented as means ±S.E.M.
MN-2Y, MC-2Y and MNC-4Y (5 mg) were incubated with a four-fold excess of FeCl3 :^59 FeCl3 :NTA (400:1:8). Ward et al., 1995, Biotechnology 13:498-503. The samples were incubated at room temperature for 30 minutes. The samples were purified through NAP-10 column (Pharmacia, Piscataway, N.J.) followed by dialysis against 0.05 M Tris/HCl, 0.2 M NaCl, pH 7.0 for 12 hours to remove any non-specific iron bound to the lactoferrin variants. Iron bound to the lactoferrin variants after dialysis was quantified by liquid scintillation counting. The pH stability of iron binding for each of the lactoferrin variants was carried out as described previously. […]
The lactoferrin variants were saturated with ^59 FeCl3 and dialyzed against buffers ranging in pH from 7-2 for 48 hours at 4° C. The amount of iron remaining bound to the lactoferrin variants was quantified by liquid scintillation counting. […]

B1: recombinant lactoferrin: purified wild-type recombinant human lactoferrin expressed in Aspergillus awamori (protein, UniProt P02788 20-710, looked up)
Lactotransferrin: GRRRSVQWCAVSQPEATKCFQWQRNMRKVRGPPVSCIKRDSPIQCIQAIAENRADAVTLDGGFIYEAGLAPYKLRPVAAEVYGTERQPRTHYYAVAVVKKGGSFQLNELQGLKSCHTGLRRTAGWNVPIGTLRPFLNWTGPPEPIEAAVARFFSASCVPGADKGQFPNLCRLCAGTGENKCAFSSQEPYFSYSGAFKCLRDGAGDVAFIRESTVFEDLSDEAERDEYELLCPDNTRKPVDKFKDCHLARVPSHAVVARSVNGKEDAIWNLLRQAQEKFGKDKSPKFQLFGSPSGQKDLLFKDSAIGFSRVPPRIDSGLYLGSGYFTAIQNLRKSEEEVAARRARVVWCAVGEQELRKCNQWSGLSEGSVTCSSASTTEDCIALVLKGEADAMSLDGGYVYTAGKCGLVPVLAENYKSQQSSDPDPNCVDRPVEGYLAVAVVRRSDTSLTWNSVKGKKSCHTAVDRTAGWNIPMGLLFNQTGSCKFDEYFSQSCAPGSDPRSNLCALCIGDEQGENKCVPNSNERYYGYTGAFRCLAENAGDVAFVKDVTVLQNTDGNNNEAWAKDLKLADFALLCLDGKRKPVTEARSCHLAMAPNHAVVSRMDKVERLKQVLLHQQAKFGRNGSDCPDKFCLFQSETKNLLFNDNTECLARLHGKTTYEKYLGPQYVAGITNLKKCSTSPLLEACEFLRK
  pH at which iron release begins: 5.0
  pH at which iron release is completed: 2.0
